Measurements from publication PMC12210187.

Target: Stenotrophomonas maltophilia EntB (Stenotrophomonas maltophilia K279a)
Assay: SEC; analytical size-exclusion chromatography; estimated molecular weight 61.8 kDa

stoichiometry N: 2
Substance: Stenotrophomonas maltophilia EntB (enzyme)
